Measurements: US20140087995A1 (published 2014)
Numbered stars: 1 amine (or outer) side, 2 acyl side, 3 side chain; on linkers, the order of the positions; unused ones are H or OH. Bridge positions count the residues as written; N and C are the ends. * marks the point of attachment. C20 diacid = O=C(O)CCCCCCCCCCCCCCCCCCC(=O)*; γGlu = O=C(O)[C@H](CCC(=O)[*:2])N[*:1]

T1: rat amylin receptor (rat calcitonin receptor + rat RAMP 3) (rat, UniProt P32214 25-516; Q9JJ73 23-147)
T1 construct: whole, on cells; Membranes of BHK tk'ts 13 cells transiently transfected with the rat calcitonin receptor and rat RAMP 3; also called rAmylin-R; rat amylin 3(a) receptor
T1 sequence (looked up) 1: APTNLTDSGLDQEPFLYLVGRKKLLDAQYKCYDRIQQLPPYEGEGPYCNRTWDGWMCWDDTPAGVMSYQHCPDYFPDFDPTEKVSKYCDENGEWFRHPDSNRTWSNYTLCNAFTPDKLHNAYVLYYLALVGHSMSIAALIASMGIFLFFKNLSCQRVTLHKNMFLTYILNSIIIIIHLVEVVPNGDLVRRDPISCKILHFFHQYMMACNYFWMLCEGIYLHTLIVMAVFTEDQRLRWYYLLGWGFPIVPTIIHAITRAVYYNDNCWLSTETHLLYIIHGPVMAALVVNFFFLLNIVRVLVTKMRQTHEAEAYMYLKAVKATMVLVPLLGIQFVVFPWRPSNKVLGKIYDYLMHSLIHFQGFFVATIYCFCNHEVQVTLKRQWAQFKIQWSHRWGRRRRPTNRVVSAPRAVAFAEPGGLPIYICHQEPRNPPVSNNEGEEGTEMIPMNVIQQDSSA
T1 sequence (looked up) 2: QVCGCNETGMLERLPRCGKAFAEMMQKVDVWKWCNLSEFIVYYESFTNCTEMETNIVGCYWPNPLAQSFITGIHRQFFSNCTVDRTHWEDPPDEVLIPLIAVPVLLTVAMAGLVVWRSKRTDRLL

T2: rat calcitonin receptor (rat, UniProt P32214 25-516)
T2 construct: whole, on cells; Membranes of BHK tk'ts 13 cells transiently transfected with the rat calcitonin receptor; also called rCTR; rat calcitonin (a) receptor
T2 sequence (looked up): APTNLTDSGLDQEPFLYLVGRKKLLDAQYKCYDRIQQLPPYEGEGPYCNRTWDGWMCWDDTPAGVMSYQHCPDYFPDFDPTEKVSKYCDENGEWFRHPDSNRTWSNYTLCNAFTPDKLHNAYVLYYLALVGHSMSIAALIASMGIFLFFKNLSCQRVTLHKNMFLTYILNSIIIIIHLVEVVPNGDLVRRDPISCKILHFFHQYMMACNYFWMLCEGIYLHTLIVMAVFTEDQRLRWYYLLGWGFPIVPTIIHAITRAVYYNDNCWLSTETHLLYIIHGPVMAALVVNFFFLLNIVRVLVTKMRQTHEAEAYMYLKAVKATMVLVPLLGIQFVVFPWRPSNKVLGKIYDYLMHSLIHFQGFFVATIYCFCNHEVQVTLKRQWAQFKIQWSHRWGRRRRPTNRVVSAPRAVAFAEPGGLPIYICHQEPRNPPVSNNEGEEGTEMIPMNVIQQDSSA

T3: human calcitonin receptor (human, UniProt P30988 25-474)
T3 construct: whole, on cells; Membranes of a BHK tk'ts 13 cell line stably transfected with the human calcitonin receptor; also called hCTR; hCT
T3 sequence (looked up): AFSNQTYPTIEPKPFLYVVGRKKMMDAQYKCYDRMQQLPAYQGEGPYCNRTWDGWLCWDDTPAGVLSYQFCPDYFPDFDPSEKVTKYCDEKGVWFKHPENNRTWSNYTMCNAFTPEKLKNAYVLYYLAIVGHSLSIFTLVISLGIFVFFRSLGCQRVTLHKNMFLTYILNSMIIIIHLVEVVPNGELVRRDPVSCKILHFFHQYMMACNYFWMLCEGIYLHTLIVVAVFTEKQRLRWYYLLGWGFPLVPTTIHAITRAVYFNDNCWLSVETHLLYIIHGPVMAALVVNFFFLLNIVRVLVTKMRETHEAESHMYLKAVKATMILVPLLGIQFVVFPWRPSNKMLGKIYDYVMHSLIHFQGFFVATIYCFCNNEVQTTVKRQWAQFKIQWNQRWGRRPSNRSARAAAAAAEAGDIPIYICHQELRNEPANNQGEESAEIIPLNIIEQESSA

B1: N^α1-[2-[2-[2-[[2-[2-[2-[[(4S)-4-carboxy-4-(19-carboxynonadecanoylamino)butanoyl]amino]ethoxy]ethoxy]acetyl]amino]ethoxy]ethoxy]acetyl]-[Glu14,Arg17,Pro21,Pro27 … (peptide)
peptide: KCNTATCATQRLAEFLRHSSPNFGAIPSSTNVGSNTY
modifications: C20 diacid-gGlu-2xOEG on the alpha amino group of the N-terminal residue (Lys 1); disulfide bridge Cys2-Cys7; C-terminal amide
notes: modifications are with respect to human amylin; also called compound 19
B2: N^α1-[(4S)-4-carboxy-4-(19-carboxynonadecanoylamino)butanoyl]-[Arg17,Pro21,Pro27,Glu35]-h-amylin (peptide)
peptide: KCNTATCATQRLANFLRHSSPNFGAIPSSTNVGSETY
modifications: C20 diacid-gGlu on the alpha amino group of the N-terminal residue (Lys 1); disulfide bridge Cys2-Cys7; C-terminal amide
notes: modifications are with respect to human amylin; also called compound 23
B3: N^α1-[(4S)-4-carboxy-4-(19-carboxynonadecanoylamino)butanoyl]-[Arg17,Pro21,Pro27,Lys35]-h-amylin (peptide)
peptide: KCNTATCATQRLANFLRHSSPNFGAIPSSTNVGSKTY
modifications: C20 diacid-gGlu on the alpha amino group of the N-terminal residue (Lys 1); disulfide bridge Cys2-Cys7; C-terminal amide
notes: modifications are with respect to human amylin; also called compound 34
B4: N^α1-[(4S)-4-carboxy-4-(19-carboxynonadecanoylamino)butanoyl]-[Arg17,Pro21,Pro27,Pro31,Glu35]-h-amylin (peptide)
peptide: {C20 diacid-γGlu}-KCNTATCATQRLANFLRHSSPNFGAIPSSTPVGSETY-NH2
modifications: disulfide 2-7
SMILES: CC[C@H](C)[C@H](NC(=O)[C@H](C)NC(=O)CNC(=O)[C@H](Cc1ccccc1)NC(=O)[C@H](CC(N)=O)NC(=O)[C@@H]1CCCN1C(=O)[C@H](CO)NC(=O)[C@H](CO)NC(=O)[C@H](Cc1c[nH]cn1)NC(=O)[C@H](CCCNC(=N)N)NC(=O)[C@H](CC(C)C)NC(=O)[C@H](Cc1ccccc1)NC(=O)[C@H](CC(N)=O)NC(=O)[C@H](C)NC(=O)[C@H](CC(C)C)NC(=O)[C@H](CCCNC(=N)N)NC(=O)[C@H](CCC(N)=O)NC(=O)[C@@H](NC(=O)[C@H](C)NC(=O)[C@@H]1CSSC[C@H](NC(=O)[C@H](CCCCN)NC(=O)CC[C@H](NC(=O)CCCCCCCCCCCCCCCCCCC(=O)O)C(=O)O)C(=O)N[C@@H](CC(N)=O)C(=O)N[C@@H]([C@@H](C)O)C(=O)N[C@@H](C)C(=O)N[C@@H]([C@@H](C)O)C(=O)N1)[C@@H](C)O)C(=O)N1CCC[C@H]1C(=O)N[C@@H](CO)C(=O)N[C@@H](CO)C(=O)N[C@H](C(=O)N1CCC[C@H]1C(=O)N[C@H](C(=O)NCC(=O)N[C@@H](CO)C(=O)N[C@@H](CCC(=O)O)C(=O)N[C@H](C(=O)N[C@@H](Cc1ccc(O)cc1)C(N)=O)[C@@H](C)O)C(C)C)[C@@H](C)O
notes: modifications are with respect to human amylin; also called compound 28
B5: N^α1-[(4S)-4-carboxy-4-(19-carboxynonadecanoylamino)butanoyl]-[Arg17,Pro21,Pro27,Arg34]-h-amylin (peptide)
peptide: KCNTATCATQRLANFLRHSSPNFGAIPSSTNVGRNTY
modifications: C20 diacid-gGlu on the alpha amino group of the N-terminal residue (Lys 1); disulfide bridge Cys2-Cys7; C-terminal amide
notes: modifications are with respect to human amylin; also called compound 39
B6: N^α1-[(4S)-4-carboxy-4-(19-carboxynonadecanoylamino)butanoyl]-[Arg17,Pro21,Pro27,His34]-h-amylin (peptide)
peptide: KCNTATCATQRLANFLRHSSPNFGAIPSSTNVGHNTY
modifications: C20 diacid-gGlu on the alpha amino group of the N-terminal residue (Lys 1); disulfide bridge Cys2-Cys7; C-terminal amide
notes: modifications are with respect to human amylin; also called compound 40
B7: N^α1-[(4S)-4-carboxy-4-(19-carboxynonadecanoylamino)butanoyl]-[Arg17,Pro21,Pro27,Pro34,Glu35]-h-amylin (peptide)
peptide: {C20 diacid-γGlu}-KCNTATCATQRLANFLRHSSPNFGAIPSSTNVGPETY-NH2
modifications: disulfide 2-7
SMILES: CC[C@H](C)[C@H](NC(=O)[C@H](C)NC(=O)CNC(=O)[C@H](Cc1ccccc1)NC(=O)[C@H](CC(N)=O)NC(=O)[C@@H]1CCCN1C(=O)[C@H](CO)NC(=O)[C@H](CO)NC(=O)[C@H](Cc1c[nH]cn1)NC(=O)[C@H](CCCNC(=N)N)NC(=O)[C@H](CC(C)C)NC(=O)[C@H](Cc1ccccc1)NC(=O)[C@H](CC(N)=O)NC(=O)[C@H](C)NC(=O)[C@H](CC(C)C)NC(=O)[C@H](CCCNC(=N)N)NC(=O)[C@H](CCC(N)=O)NC(=O)[C@@H](NC(=O)[C@H](C)NC(=O)[C@@H]1CSSC[C@H](NC(=O)[C@H](CCCCN)NC(=O)CC[C@H](NC(=O)CCCCCCCCCCCCCCCCCCC(=O)O)C(=O)O)C(=O)N[C@@H](CC(N)=O)C(=O)N[C@@H]([C@@H](C)O)C(=O)N[C@@H](C)C(=O)N[C@@H]([C@@H](C)O)C(=O)N1)[C@@H](C)O)C(=O)N1CCC[C@H]1C(=O)N[C@@H](CO)C(=O)N[C@@H](CO)C(=O)N[C@H](C(=O)N[C@@H](CC(N)=O)C(=O)N[C@H](C(=O)NCC(=O)N1CCC[C@H]1C(=O)N[C@@H](CCC(=O)O)C(=O)N[C@H](C(=O)N[C@@H](Cc1ccc(O)cc1)C(N)=O)[C@@H](C)O)C(C)C)[C@@H](C)O
notes: modifications are with respect to human amylin; also called compound 29

Assays:
[1] = biological target: T1, rat amylin receptor (rat calcitonin …); experiment: SPA competition vs 125I-rat amylin, membranes with rat CTR + rat RAMP3 (Assay VI)
Procedure: The binding assay was performed using scintillation proximity assay (SPA) beads (RPNQ0001) from PerkinElmer and cell membranes from the Amylin 3(a)/CRE-luc cells (as described in Assay (II)) were used. Membranes were prepared in the following way; the cells were rinsed with PBS and incubated with Versene for approximately 5 min before harvesting. The cells were flushed with PBS and the cell-suspension was centrifuged for 5 min at 1000 rpm. Cells were homogenized (ultrathurrax) in a buffer containing 20 mM Na-HEPES and 10 mM EDTA (pH 7.4) and centrifuged at 20.000 rpm for 15 min. The resulting pellet was resuspended, homogenized and centrifuged (20.000 rpm, 15 min) in a buffer containing 20 mM Na-HEPES and 0.1 mM EDTA (pH 7.4, buffer 2). The resulting pellet was resuspended in buffer 2 and protein concentration was measured (BCA protein Assay, Pierce). The homogenate was kept cold during the whole procedure. The membranes were kept at −80° C. until use. The assay was performed in a 384 well Optiplate (PerkinElmer) in a total volume of 40 ul. Membranes were mixed with SPA beads. Final concentration of membranes 35 ng/μL final and SPA beads was 0.05 mg/well. Test-compounds were dissolved in DMSO and further diluted in assay buffer (50 mM Hepes, pH 7.4, 1 mM CaCl2, 5 mM MgCl₂, 0.1% OA and 0.02% Tween20). […] The final mixture was incubated with shaking at 400 rpm for 120 min at 25° C. prior to centrifugation (1500 rpm, 10 min). Samples were analyzed on TopCounter™ (Packard). The IC₅₀ was calculated using (one site binding competition analysis) GraphPad Prism5 as a measure of receptor affinity.
Cells were grown in DMEM with 10% FBS and 1% Pen/Strep. Approximately 48 hours after transfection, the cells were harvested and membranes were prepared.

rat calcitonin receptor [2] = biological target: T2, rat calcitonin receptor; experiment: IC50 at rCTR divided by IC50 at rAmylin-R (reference)
[3] = biological target: T3, human calcitonin receptor; experiment: IC50 at hCTR divided by IC50 at hAmylin-R (reference)
Procedure: The resulting pellet was resuspended, homogenized and centrifuged (20.000 rpm, 15 min) in a buffer containing 20 mM Na-HEPES and 0.1 mM EDTA (pH 7.4, buffer 2). The resulting pellet was resuspended in buffer 2 and protein concentration was measured (BCA protein Assay, Pierce). The homogenate was kept cold during the whole procedure. The membranes were kept at −80° C. until use. The assay was performed in a 384 well Optiplate (PerkinElmer) in a total volume of 40 ul. Membranes were mixed with SPA beads. Final concentration of membranes 35 ng/μL final and SPA beads was 0.05 mg/well. Test-compounds were dissolved in DMSO and further diluted in assay buffer (50 mM Hepes, pH 7.4, 1 mM CaCl2, 5 mM MgCl₂, 0.1% OA and 0.02% Tween20). […] The final mixture was incubated with shaking at 400 rpm for 120 min at 25° C. prior to centrifugation (1500 rpm, 10 min). Samples were analyzed on TopCounter™ (Packard). The IC₅₀ was calculated using (one site binding competition analysis) GraphPad Prism5 as a measure of receptor affinity.
Membranes were prepared in the following way; the cells were rinsed with PBS and incubated with Versene for approximately 5 min before harvesting. The cells were flushed with PBS and the cell-suspension was centrifuged for 5 min at 1000 rpm. Cells were homogenized (Ultrathurrax) in a buffer containing 20 mM Na-HEPES and 10 mM EDTA (pH 7.4) and centrifuged at 20.000 rpm for 15 min. The resulting pellet was resuspended, homogenized and centrifuged (20.000 rpm, 15 min) in a buffer containing 20 mM Na-HEPES and 0.1 mM EDTA (pH 7.4, buffer 2). The resulting pellet was resuspended in buffer 2 and protein concentration was measured (BCA protein Assay, Pierce). The homogenate was kept cold during the whole procedure. The membranes were kept at −80° C. until use. Assay was performed in a 384 well Optiplate (PerkinElmer) in a total volume of 40 ul. Membranes were mixed with SPA beads.

rat calcitonin receptor [4] = biological target: T2, rat calcitonin receptor; experiment: SPA competition vs 125I-calcitonin, membranes with rat CTR (Assay VIII)

Binder	IC50 [1]	Ratio rCT/rAmylin binding (rat calcitonin receptor [2])	Ratio hCT/hAmylin binding [3]	IC50 (rat calcitonin receptor [4])
B1	1.02 nM	93.6	36.7	95.6 nM
B2	1.12 nM	71.3	25	79.9 nM
B3	1.72 nM	52	64.4	89.2 nM
B4	1.22 nM	44.9	20.5	54.9 nM
B5	1.77 nM	54.5	29	96.4 nM
B6	1.5 nM	46.2	31.1	69.2 nM
B7	0.322 nM	67	13.9	21.6 nM
